# Laboratory results from patent US20030176373, “Agents that modulate DNA-PK activity and methods of use thereof” (published 2003).
# B1: ss-M-ODN (ssDNA)
# DNA: TGACTGTGAACCTTAGAGATGA
# B2: ss-ISS-ODN (ssDNA)
# DNA: TGACTGTGAACGTTCGAGATGA
# Key:
# [1] = molecular target: T1, Ku70/Ku80 heterodimer (Ku antigen) (Mus musculus, UniProt P23475;P27641 P23475:2-608,P27641:1-732); experiment: competition; no significant competition at 0.1-0.4 ug
# Description: (§1) To verify the binding specificity of the Ku protein to ISS-ODN, inhibition studies were performed using cold ss or ds ISS or mutated (M, i.e., control) ODNs. Ten μg of fraction 20 from the affinity column were incubated with [³²P]-labeled ISS-ODN in the presence of unlabeled (0.1, 0.2 and 0.4 μg, respectively) ss-ISS-ODN (lanes 3-5), ds-ISS-ODN (lanes 7-9), ss-M-ODN (lanes 11-13) or ds-M-ODN (lanes 15-17).
# [2] = molecular target: T1, Ku70/Ku80 heterodimer (Ku antigen); experiment: competition; unlabeled 0.1-0.4 ug displaces labeled ds-ISS-ODN
# Description: as §1
# T1 sequence (P23475 2-608, chain 1 of 2): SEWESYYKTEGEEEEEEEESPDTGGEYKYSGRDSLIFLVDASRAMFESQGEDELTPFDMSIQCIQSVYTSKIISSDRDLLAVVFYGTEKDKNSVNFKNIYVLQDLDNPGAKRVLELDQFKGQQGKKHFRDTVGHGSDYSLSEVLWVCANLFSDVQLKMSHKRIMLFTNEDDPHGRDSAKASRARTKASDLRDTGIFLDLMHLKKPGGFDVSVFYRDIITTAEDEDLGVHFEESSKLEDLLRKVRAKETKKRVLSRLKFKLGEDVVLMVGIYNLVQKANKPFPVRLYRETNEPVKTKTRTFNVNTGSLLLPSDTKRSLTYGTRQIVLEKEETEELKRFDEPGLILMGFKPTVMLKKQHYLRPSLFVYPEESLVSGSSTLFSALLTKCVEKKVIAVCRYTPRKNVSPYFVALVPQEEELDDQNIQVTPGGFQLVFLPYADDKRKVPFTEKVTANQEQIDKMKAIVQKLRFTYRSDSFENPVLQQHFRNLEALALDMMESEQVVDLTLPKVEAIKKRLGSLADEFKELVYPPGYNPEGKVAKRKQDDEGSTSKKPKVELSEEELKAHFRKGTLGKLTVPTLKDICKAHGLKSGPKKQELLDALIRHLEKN
# T1 sequence (P27641 whole entry, chain 2 of 2): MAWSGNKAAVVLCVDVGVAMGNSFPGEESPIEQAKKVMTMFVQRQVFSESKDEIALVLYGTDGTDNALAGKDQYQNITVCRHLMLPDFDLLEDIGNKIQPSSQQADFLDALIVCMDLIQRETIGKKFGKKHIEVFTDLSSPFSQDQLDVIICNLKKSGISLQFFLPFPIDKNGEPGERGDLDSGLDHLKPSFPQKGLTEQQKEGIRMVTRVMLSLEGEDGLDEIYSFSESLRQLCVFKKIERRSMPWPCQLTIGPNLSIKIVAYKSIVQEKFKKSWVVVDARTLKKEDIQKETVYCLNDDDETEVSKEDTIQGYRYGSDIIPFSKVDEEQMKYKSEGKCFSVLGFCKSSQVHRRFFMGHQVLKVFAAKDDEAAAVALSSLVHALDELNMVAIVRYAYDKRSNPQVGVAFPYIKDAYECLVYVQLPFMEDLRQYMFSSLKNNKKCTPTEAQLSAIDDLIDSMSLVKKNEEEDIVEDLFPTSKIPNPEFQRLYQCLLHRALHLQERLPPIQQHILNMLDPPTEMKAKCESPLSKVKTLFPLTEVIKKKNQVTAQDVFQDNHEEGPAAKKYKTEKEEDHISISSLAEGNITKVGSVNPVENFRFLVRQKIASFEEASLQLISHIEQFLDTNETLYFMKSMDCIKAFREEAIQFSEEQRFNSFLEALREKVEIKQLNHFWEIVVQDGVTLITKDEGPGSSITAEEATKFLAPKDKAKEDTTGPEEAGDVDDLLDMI
Binder,binding result [1],binding result [2]
B1,no binding,–
B2,–,binds
